The values that follow come from patent publication US20180149638A1.

The target in this experiment is pBIND-ASK1N (DNA binding domain fused to ASK1 N-terminal 1-678 aa, CheckMate mammalian two-hybrid system) (Homo sapiens (Human)) (UniProt Q99683). The experiment can be described thus: cell-based or functional assay.
UniProt Q99683, sequence (Q99683 other isoform, or with tags, fused parts or gaps limits assumed, form in doubt): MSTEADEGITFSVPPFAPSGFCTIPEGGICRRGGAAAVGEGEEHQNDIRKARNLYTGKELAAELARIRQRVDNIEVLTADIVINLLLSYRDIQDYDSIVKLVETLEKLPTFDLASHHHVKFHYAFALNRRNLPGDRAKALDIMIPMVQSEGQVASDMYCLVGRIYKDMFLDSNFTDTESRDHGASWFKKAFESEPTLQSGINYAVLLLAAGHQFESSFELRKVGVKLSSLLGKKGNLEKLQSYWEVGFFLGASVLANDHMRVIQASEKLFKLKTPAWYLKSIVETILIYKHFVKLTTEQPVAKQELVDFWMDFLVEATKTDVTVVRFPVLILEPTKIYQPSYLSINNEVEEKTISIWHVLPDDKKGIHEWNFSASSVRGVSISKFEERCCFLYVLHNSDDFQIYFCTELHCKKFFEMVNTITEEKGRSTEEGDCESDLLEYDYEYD

Take “pACT-ASK1N (transcriptional activation domain fused to ASK1 N-terminal 1-678 aa, CheckMate mammalian two-hybrid system) (from UniProt Q99683 1-678)”: the ratio of RLU value of firefly luciferase to RLU value of Renilla luciferase, group A (no peptide) is 1.9.
